Test results as given in patent US20230322924A1 (Janssen / Centocor, published 2023).

T1: TMEW1 (TMEFF2-FL-ECD-His-Avitag) (human, UniProt Q9UIK5 41-320)
T1 construct: Human TMEFF2 ECD with C-terminal G3S, 6xHis tag and Avi-tag, all in the entry; also called TMEFF2 ECD
T1 sequence: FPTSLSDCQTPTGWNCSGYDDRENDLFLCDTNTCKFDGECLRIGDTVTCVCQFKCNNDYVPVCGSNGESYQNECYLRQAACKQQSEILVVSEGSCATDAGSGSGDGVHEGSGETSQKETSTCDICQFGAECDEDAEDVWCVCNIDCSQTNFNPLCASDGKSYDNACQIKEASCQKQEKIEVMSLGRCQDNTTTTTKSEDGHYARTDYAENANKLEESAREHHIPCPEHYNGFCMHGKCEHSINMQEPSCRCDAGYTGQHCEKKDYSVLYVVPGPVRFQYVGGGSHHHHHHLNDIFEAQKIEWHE

T2: TMEW19 (spTMEFF2(230-320)G3S-H6) (human, UniProt Q9UIK5 230-320)
T2 construct: Residues 230-320 of human TMEFF2 with G3S and 6xHis tag, all in the entry; also called TMEFF2 membrane proximal region; MP
T2 sequence: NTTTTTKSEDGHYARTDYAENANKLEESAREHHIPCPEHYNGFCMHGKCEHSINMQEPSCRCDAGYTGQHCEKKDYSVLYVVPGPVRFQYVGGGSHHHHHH

T3: chimpanzee PSMA, full length, on HEK293F cells (Pan troglodytes (chimpanzee))
T3 construct: stably transfected HEK293F cells; also called chimp PSMA; chimp-PSMA HEK
T3 chain: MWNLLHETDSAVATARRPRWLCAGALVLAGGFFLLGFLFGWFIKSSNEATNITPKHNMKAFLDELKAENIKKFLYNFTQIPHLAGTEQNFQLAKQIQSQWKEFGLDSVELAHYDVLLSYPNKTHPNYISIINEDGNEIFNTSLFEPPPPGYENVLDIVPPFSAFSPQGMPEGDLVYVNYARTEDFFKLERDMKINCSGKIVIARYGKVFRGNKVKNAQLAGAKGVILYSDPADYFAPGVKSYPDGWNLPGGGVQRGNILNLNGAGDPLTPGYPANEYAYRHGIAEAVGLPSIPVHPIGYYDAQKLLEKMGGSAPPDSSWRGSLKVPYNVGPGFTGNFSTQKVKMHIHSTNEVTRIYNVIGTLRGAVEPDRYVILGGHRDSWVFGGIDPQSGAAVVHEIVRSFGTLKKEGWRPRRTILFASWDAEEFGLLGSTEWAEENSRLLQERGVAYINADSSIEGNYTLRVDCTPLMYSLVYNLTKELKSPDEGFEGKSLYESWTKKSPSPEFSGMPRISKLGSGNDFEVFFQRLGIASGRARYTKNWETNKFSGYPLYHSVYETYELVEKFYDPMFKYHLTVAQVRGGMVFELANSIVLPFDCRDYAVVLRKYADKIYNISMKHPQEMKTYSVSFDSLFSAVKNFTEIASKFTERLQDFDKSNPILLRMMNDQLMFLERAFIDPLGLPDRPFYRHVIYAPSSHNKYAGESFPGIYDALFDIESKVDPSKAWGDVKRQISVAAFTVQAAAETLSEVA

T4: Cynomolgous monkey PSMA, full length, on HEK293F cells (Macaca fascicularis (cynomolgus monkey))
T4 construct: stably transfected HEK293F cells; also called cyno PSMA; Cyno-PSMA HEK
T4 chain: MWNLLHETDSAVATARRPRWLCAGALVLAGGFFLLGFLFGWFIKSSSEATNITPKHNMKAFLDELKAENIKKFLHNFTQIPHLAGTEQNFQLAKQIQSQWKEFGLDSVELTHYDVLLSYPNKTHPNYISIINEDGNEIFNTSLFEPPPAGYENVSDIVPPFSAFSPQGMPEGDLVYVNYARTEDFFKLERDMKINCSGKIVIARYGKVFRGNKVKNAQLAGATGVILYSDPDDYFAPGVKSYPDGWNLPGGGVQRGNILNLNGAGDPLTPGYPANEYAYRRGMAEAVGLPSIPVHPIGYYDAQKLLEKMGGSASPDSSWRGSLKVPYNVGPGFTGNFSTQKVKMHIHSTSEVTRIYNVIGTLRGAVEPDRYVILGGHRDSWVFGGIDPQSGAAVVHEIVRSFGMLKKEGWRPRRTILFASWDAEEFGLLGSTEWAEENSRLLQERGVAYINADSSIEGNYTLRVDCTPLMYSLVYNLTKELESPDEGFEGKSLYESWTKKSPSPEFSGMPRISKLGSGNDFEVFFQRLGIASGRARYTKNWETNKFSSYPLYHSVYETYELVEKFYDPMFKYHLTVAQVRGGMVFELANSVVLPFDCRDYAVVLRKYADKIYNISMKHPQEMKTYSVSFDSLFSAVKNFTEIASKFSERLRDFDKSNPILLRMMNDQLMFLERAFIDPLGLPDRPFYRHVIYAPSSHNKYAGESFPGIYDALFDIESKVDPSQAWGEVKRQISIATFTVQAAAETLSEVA


Experiments:
[1] = molecular target: T1, TMEW1 (TMEFF2-FL-ECD-His-Avitag); test: ProteOn SPR, mAb captured on anti-human Fc, TMEFF2 as analyte
Protocol: (§1) The binding of anti-TMEFF2 mAbs to the ECD and the membrane proximal region of human TMEFF2 was measured by ProteOn SPR (Bio-Rad). The purified mAbs (diluted to a final concentration of 1 μg/ml in PBST) were used as ligands in the assay and were immobilized through Fc capture to Goat Anti-Human (GAH) IgG Fc. For amine coupling of the GAH IgG Fc, a 1:1 mixture of EDC (40 mM) and NHS (10 mM) were mixed immediately prior to injection to activate the chip surface and injected in the vertical orientation. GAH-Fc (at 30 μg/ml) antibody in acetate buffer (pH 5.0) was then flowed over the surface for 300 seconds at 30 μl/min in the vertical orientation. Any remaining reactive carboxyl groups in the surface were subsequently deactivated by injecting 1M Ethanolamine (pH 8.5) in the same orientation. The antibodies were used at a concentration of 1 μg/ml for immobilization. The antibodies were flowed over the surface in the horizontal direction. Human TMEFF2 ECD or the membrane proximal region in 3-fold dilution series of 5 concentrations (highest concentration ranging from 100-600 nM) was flowed in as analyte in the vertical orientation to bind to the captured molecules. A buffer sample was also injected in the 6th channel in the vertical direction to monitor any drift in the baseline signal. The association and dissociation phases for all concentrations were monitored over 3 minutes and 30 (or 15) minutes respectively, at a flow rate of 100 μL/min. The binding surface was regenerated for the next interaction cycle using an 18 second pulse of 0.8% phosphoric acid to remove the bound antigen. The raw data were processed by subtracting two sets of reference data from the response data: 1) the inter-spot signals to correct for the non-specific interactions between the antigen and the empty chip surface; 2) the empty channel signals (where only PBST was flowed over the chip) to correct for non-specific baseline drift.

[2] = molecular target: T2, TMEW19 (spTMEFF2(230-320)G3S-H6); test: as above
Protocol: as §1

[3] = molecular target: T3, chimpanzee PSMA, full length, on …; test: flow cytometry, Fab supernatant, chimp PSMA HEK cells
Protocol: (§2) Individual Fab clones were isolated from the round 3 output of all panning experiments following pIX excision. Fab clones were tested for binding to chimp and cyno PSMA expressing HEK cells, as well as to human PSMA on LNCaP cells. Briefly, PSMA expressing cells were aliquoted into a V-bottom plate (CoStar 3357) at a density of 200,000 per well and incubated with (100 μl) supernatants expressing Fab fragments for 1 hour on ice. Cells were washed twice with PBS containing 2% FBS, and stained with a mouse anti-human kappa-RPE antibody (Life Technologies cat #MH10514) for 1 hour on ice. Cells were washed twice with PBS containing 2% FBS and resuspended in […] of the same wash buffer. Plates were read on a BD FACS Array flow cytometer. FACS data was analyzed in FlowJo software by live gating the healthy population of cells using forward scatter and side scatter, and then analyzing the cells within this gate for PE staining. Mean fluorescence intensity (MFI) was calculated and exported into Microsoft Excel. […] Fabs were sequenced and moved forward for cloning into mammalian expression vector for rescreening. True positives were selected from the binding of mammalian cell expressed Fab supernatants to PSMA-expressing cell lines.
(§3) Confirmation of mammalian expressed Fab supernatants was performed using the whole cell binding assay described previously. Binding of Fabs to human PSMA (LNCaP), chimpanzee, and cynomolgous monkey cells was tested, as well as counter screening for no binding to the parental HEK cell line.

[4] = molecular target: T4, Cynomolgous monkey PSMA, full length, …; test: flow cytometry, Fab supernatant, cyno PSMA HEK cells
Protocol: as §2, §3

[5] = molecular target: T5, human PSMA on LNCaP cells (human, UniProt Q04609 1-750); test: flow cytometry, Fab supernatant, LNCaP cells
T5 construct: PSMA of the LNCaP prostate cancer cell line itself
T5 sequence (Q04609 whole entry): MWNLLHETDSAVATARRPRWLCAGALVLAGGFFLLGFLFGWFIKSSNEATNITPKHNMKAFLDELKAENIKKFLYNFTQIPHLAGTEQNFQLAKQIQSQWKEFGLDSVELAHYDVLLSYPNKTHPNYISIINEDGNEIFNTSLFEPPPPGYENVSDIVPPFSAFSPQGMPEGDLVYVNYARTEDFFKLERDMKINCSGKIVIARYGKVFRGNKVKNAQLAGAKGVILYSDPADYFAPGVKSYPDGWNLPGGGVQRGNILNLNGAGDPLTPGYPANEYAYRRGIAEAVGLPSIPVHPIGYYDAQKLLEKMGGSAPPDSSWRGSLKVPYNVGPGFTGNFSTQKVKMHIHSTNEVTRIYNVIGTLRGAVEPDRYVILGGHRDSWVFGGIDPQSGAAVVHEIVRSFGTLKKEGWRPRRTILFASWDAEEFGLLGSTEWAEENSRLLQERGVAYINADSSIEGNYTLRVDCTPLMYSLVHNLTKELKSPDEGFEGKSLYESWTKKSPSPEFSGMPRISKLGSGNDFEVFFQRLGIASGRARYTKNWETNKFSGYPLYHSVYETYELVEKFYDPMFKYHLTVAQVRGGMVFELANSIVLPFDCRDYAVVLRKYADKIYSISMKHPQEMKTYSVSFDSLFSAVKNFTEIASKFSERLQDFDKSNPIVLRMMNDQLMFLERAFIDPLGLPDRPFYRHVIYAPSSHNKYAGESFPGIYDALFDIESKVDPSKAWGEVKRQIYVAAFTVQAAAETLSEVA
Protocol: as §2, with “A cell-based binding assay was designed to assess the binding capabilities of individual Fab-his fusions from E. coli supernatants to PSMA-expressing cells. Individual” for “Individual”
as §3

Binder | Kd [1] [nM] | koff [1] [s⁻¹] | kon [1] [M⁻¹ s⁻¹] | Kd [2] [nM] | koff [2] [s⁻¹] | kon [2] [M⁻¹ s⁻¹] | Geo-MFI [3] | Geo-MFI [4] | Geo-MFI [5]
PSMB18 (Fab, V domains shown, mammalian-expressed Fab supernatant (huG1 Fab and human kappa vectors); also called PSMM18) VH: EVQLVQSGAEVKKPGESLKISCKGSGYSFTSYWIGWVRQMPGKGLEWMGIIYPGDSDTRYSPSFQGQVTISADKSISTAYLQWSSLKASDTAMYYCARAYHYSKGLDYWGQGTLVTVSS VL: not shown |  |  |  |  |  |  | 439 | 696 | 
PSMB25 (Fab, V domains shown, mammalian-expressed Fab supernatant (huG1 Fab and human kappa vectors); also called PSMM25) VH: EVQLVQSGAEVKKPGESLKISCKGSGYSFTSYWIGWVRQMPGKGLEWMGIIYPGDSDTRYSPSFQGQVTISADKSISTAYLQWSSLKASDTAMYYCARGWAYDRGLDYWGQGTLVTVSS VL: not shown |  |  |  |  |  |  | 11.3 | 15.2 | 16.9
TMEB565 (antibody, human IgG4 S228P, kappa, F234A L235A, V domains shown, IgG4 PAA anti-TMEFF2; also called TMEH396/TMEL111) VH: QVQLVQSGAEVKKPGSSVKVSCKASGGTFSSYYISWVRQAPGQGLEWMGGIIPISGRANYAQKFQGRVTITADESTSTAYMELSSLRSEDTAVYYCARDGYSSGRSTTYAFDYWGQGTLVTVSS VL: EIVLTQSPGTLSLSPGERATLSCRASQSVATYYLAWYQQKPGQAPRLLIYGASSRATGIPDRFSGSGSGTDFTLTISRLEPEDFAVYYCQQYGYNPITFGQGTKVEIKR | 0.02 | 9.13e-06 | 384000 | 0.01 | 6.39e-06 | 777000 |  |  | 

Continued, values first:

Kd [1] [nM] | koff [1] [s⁻¹] | kon [1] [M⁻¹ s⁻¹] | Kd [2] [nM] | koff [2] [s⁻¹] | kon [2] [M⁻¹ s⁻¹] | Geo-MFI [3] | Geo-MFI [4] | Geo-MFI [5] | Binder
0.1 | 0.000162 | 2.01e+06 | 0.2 | 0.000175 | 837000 |  |  |  | TMEB674 (antibody, human IgG4 S228P, kappa, F234A L235A, V domains shown, IgG4 PAA anti-TMEFF2; also called TMEH410/TMEL126) VH: VQLLESGGGLVQPPGGSLRLSCAASGFTFSSYSMSWVRQAPGKGLEWVSVISGGGSFTSYADSVKGRFTISRDNSNNTLYLQMSSLRAEDTAFYYCARMPLNSPHDCWGQGTLVTVSS VL: AIQMTQSPSSLSASVGDRVTITCRASQGIRNDLGWYQQKPGKAPKLLIYAASSLQSGVPSRFSGSGSGTDFTLTISSLQPEDFATYYCLQDYNYSLTFGGGTKVEIRR
0.1 | 0.000153 | 2.65e+06 | 0.2 | 0.000158 | 972000 |  |  |  | TMEB675 (antibody, human IgG4 S228P, kappa, F234A L235A, V domains shown, IgG4 PAA anti-TMEFF2; also called TMEH411/TMEL127) VH: EVQLLESGGGLVQRGGSLRPSCAASGFTFSSYSMSWVRQAPGKGLEWVSVISGSGGFTDYADSVKGRFTISRDNSKNTLYLHMNSLRAEDTAVYYCARMPLNSPHDYWGQGTLVTVSS VL: AIQMTQSPSSLSASVGDRVTITCRASQGIRNDLGWYQQKPGKAPKLLIYAASSLQSGVPSRFSGSGSGTDFTLTISSLQPEDFATYYCLQDYNYALTFGGGTKVEIKR
 |  |  |  |  |  | 22 | 51.6 | 3.22 | PSMB49 (Fab, V domains shown, mammalian-expressed Fab supernatant (huG1 Fab and human kappa vectors); also called PSMM50) VH: QVQLVQSGAEVKKPGSSVKVSCKASGGTFSSYAISWVRQAPGQGLEWMGGIIPIFGTANYAQKFQGRVTITADESTSTAYMELSSLRSEDTAVYYCARASRVWHASYGYLDYWGQGTLVTVSS VL: EIVLTQSPATLSLSPGERATLSCRASQSVSKWLAWYQQKPGQAPRLLIYDASNRATGIPARFSGSGSGTDFTLTISSLEPEDFAVYYCQQRFTAPWTFGQGTKVEIK
0.11 | 5.13e-05 | 464000 | 0.06 | 4.67e-05 | 762000 |  |  |  | TMEB570 (antibody, human IgG4 S228P, kappa, F234A L235A, V domains shown, IgG4 PAA anti-TMEFF2; also called TMEH396/TMEL112) VH: QVQLVQSGAEVKKPGSSVKVSCKASGGTFSSYYISWVRQAPGQGLEWMGGIIPISGRANYAQKFQGRVTITADESTSTAYMELSSLRSEDTAVYYCARDGYSSGRSTTYAFDYWGQGTLVTVSS VL: EIVLTQSPGTLSLSPGERATLSCRASQSVSTYYLAWYQQKPGQAPRLLIYGASYRATGIPDRFSGSGSGTDFTLTISRLEPEDFAVYYCQQYGHSPITFGQGTKVEIKR
